# Article PMC5039489
# What was measured:
# [1] = molecular target: CK2α-DBCO545 (human protein kinase CK2α subunit with pAzF at position 239, coupled to DBCO545) (human) (UniProt P68400)
# [2] = molecular target: CK2β autotransporter fusion protein (CK2β-AT), displayed on the surface of E. coli by Autodisplay (human); test: flow cytometry on cells; E. coli BL21(DE3) cells displaying the protein by Autodisplay (OD578 = 1, 20 µL) incubated with 10 µL purified CK2α-DBCO545 for 60 min at 37 °C, washed three times with PBS; 561 nm laser; 50,000 cells
# [3] = molecular target: CK2α-DBCO-Sulfo-Cy5 (human protein kinase CK2α subunit with pAzF at position 239, coupled to DBCO-Sulfo-Cy5) (human) (UniProt P68400); test: MST; CK2α-DBCO-Sulfo-Cy5 constant (65 nM), αS1-casein titrated from 0.76 nM to 12.50 µM; kinase buffer (50 mM Tris/HCl pH 8.5, 25 mM NaCl, 20 mM MgCl2) with 0.1% Tween-20; samples incubated at 37 °C for 90 min; recorded at 30 °C; Monolith NT.115; three independent experiments
molecule,measurement,setting,value
purified regulatory CK2β-subunit (from UniProt P67870 1-215) (natural protein),phosphorylation activity on the substrate peptide … by capillary electrophoresis: CK2α-DBCO545 with purified CK2β added in a 1:1 ratio against CK2α-DBCO545 alone,[1],8 fold
"CK2α-DBCO545 (human protein kinase CK2α subunit with pAzF at position 239, coupled to DBCO545) (enzyme, para azidophenylalanine (pAzF) at 239, coupled to dibenzylcyclooctyne-fluor 545 (DBCO545) by SPAAC click reaction) MSGPVPSRARVYTDVNTHRPREYWDYESHVVEWGNQDDYQLVRKLGRGKYSEVFEAINITNNEKVVVKILKPVKKKKIKREIKILENLRGGPNIITLADIVKDPVSRTPALVFEHVNNTDFKQLYQTLTDYDIRFYMYEILKALDYCHSMGIMHRDVKPHNVMIDHEHRKLRLIDWGLAEFYHPGQEYNVRVASRYFKGPELLVDYQMYDYSLDMWSLGCMLASMIFRKEPFFHGHDN",mean fluorescence intensity (mF),[2],3800
human αS1-casein (natural protein) RPKLPLRYPERLQNPSESSEPIPLESREEYMNGMNRQRNILREKQTDEIKDTRNESTQNCVVAEPEKMESSISSSSEEMSLSKCAEQFCRLNEYNQLQLQAAHAQEQIRRMNENSHVQVPFQQLNQLAAYPYAVWYYPQIMQYVPFPPFSDISNPTAHENYEKNNVMLQW,Kd,[3],631 nM
